Our source for the GST Average SNR values is patent US20140274782A1, “AFFINITY REAGENTS AND METHODS FOR DETECTION, PURIFICATION, AND PROTEOMIC ANALYSIS OF METHYLATED PROTEINS” (The Board of Trustees of the Leland Stanford Junior …, priority 2013, published 2014).

Assay in all cases: ProtoArray, GST-treated control array
Conditions in all cases: remark: other sources report otherwise

Test [1] deals with YPEL5-yippee-like 5 (Drosophila) (YPEL5) (human), P62699.
Test [2] addresses UBE2D2-Ubiquitin-conjugating enzyme E2 D2 (human), P62837.
The target of test [3] is C12orf23-chromosome 12 open reading frame 23 (C12orf23) (human), Q8WUH6.

UBE2D2-Ubiquitin-conjugating enzyme E2 D2 (human), P62837, sequence (P62837 whole entry): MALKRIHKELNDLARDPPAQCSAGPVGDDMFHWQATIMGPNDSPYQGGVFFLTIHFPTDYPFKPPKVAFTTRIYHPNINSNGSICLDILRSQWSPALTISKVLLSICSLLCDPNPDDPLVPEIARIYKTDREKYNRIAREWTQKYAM
YPEL5-yippee-like 5 (Drosophila) (YPEL5) (human), P62699, sequence (P62699 whole entry): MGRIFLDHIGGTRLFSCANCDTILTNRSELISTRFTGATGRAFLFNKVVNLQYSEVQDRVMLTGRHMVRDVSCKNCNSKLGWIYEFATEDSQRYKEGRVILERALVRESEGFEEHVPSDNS

B1: 3× Flag-3×MBT (designed binder, not shown: a dimerising Fc or GST)
chain: EEWSSSQPATGEKKECWSWESYLEEQKAITAPVSLFQDSQAVTHNKNGFKLGMKLEGIDPQHPSMYFILTVAEVCGYRLRLHFDGYSECHDFWVNANSPDIHPAGWFEKTGHKLQPPKGYKEEEFSWSQYLRSTRAQAAPKHLFVSQSHSPPPLGFQVGMKLEAVDRMNPSLVCVASVTDVVDSRFLVHFDNWDDTYDYWCDPSSPYIHPVGWCQKQGKPLTPPQDYPDPDNFCWEKYLEETGASAVPTWAFKVRPPHSFLVNMKLEAVDRRNPALIRVASVEDVEDHRIKIHFDGWSHGYDFWIDADHPDIHPAGWCSKTGHPLQPPLGPREPSSASPGG
Take B1: the GST Average SNR is -0.787 in test [1], -0.383 in test [2] and 0.48 in test [3].
